Laboratory results as given in US20220363763A1 (ABL BIO, published 2022).
One block for each binder: values may come before it.

How the values were obtained:
[1] = target: T1, human LAG3-His protein (Sinobio, 16498-H08H) (human, UniProt P18627 23-450); assay: ELISA on coated LAG3-His
T1 construct: also called human LAG3 protein; not shown: His tag
T1 sequence (looked up): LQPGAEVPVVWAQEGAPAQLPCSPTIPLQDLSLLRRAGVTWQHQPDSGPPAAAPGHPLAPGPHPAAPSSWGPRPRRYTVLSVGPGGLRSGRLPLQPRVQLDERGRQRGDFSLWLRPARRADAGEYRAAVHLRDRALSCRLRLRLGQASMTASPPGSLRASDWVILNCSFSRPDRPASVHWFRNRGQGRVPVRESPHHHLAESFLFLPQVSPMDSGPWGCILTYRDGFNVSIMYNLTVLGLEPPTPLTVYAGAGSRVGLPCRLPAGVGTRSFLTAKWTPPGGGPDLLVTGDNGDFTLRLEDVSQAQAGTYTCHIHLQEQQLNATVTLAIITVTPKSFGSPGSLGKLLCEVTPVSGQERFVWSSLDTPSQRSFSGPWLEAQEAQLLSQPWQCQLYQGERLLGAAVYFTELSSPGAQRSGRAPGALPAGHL
Text: To evaluate the binding activity to PD-L1 and LAG3 of the bispecific antibodies (BsAb; H12x147 and 147xH12) prepared in Example 3, the BsAb were subjected to ELISA test.

[2] = target: T2, human PD-L1-Fc protein (human, UniProt Q9NZQ7 19-239); assay: ELISA on coated PD-L1-Fc
T2 construct: Coated on ELISA plates; also called huPD-L1; not shown: Fc part

[3] = target: T3, human LAG3 (construct not stated) (human, UniProt P18627 23-450, limits assumed); assay: TR-FRET LAG3 / MHC II binding assay (Cisbio), competitor MHC II
T3 construct: also called human LAG3 protein; antigen
T3 sequence (looked up): T1 sequence (looked up)
Method: To measure the ability of B3807 to block the interaction between human LAG3 and MHCII, the LAG3 and MHC II binding assay (Cisbio, 64ICP03PEG) was performed utilizing homogeneous TR-FRET technology, following the protocol provided by the kit manufacturer. B3807 was 3-fold diluted ranging from 100 nM to 5 pM (10 points). Fluorescence data was acquired on a PerkinElmer Envision plate reader and a four-parameter dose-response curve was fitted to obtain IC50 of each antibody.

[4] = target: T4, human LAG3 on cells (human, UniProt P18627 23-525); assay: flow cytometry (MFI) on activated human PBMC (CD4+ cells), lower panel
T4 construct: whole, on cells; also called Jurkat-LAG3
T4 sequence (looked up): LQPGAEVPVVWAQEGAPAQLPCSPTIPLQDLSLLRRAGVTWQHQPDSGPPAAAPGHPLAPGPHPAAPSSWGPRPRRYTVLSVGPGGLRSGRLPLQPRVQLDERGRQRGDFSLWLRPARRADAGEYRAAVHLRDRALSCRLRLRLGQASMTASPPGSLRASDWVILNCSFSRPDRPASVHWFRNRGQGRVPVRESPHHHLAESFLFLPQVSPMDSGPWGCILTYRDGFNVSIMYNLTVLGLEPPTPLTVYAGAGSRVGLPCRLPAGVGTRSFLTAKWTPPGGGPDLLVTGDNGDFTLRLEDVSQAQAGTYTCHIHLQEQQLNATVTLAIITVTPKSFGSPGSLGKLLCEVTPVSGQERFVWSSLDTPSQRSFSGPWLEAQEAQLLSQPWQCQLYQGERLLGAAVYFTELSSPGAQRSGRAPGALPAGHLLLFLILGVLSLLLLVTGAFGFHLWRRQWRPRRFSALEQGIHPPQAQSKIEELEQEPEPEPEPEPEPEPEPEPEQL
Method: (§1) To further confirm that B3807 could bind to cell-derived human LAG3, both inducible human LAG3 expressed Jurkat cells and activated PBMCs were used to test the binding capability of B3807. In brief, Jurkat cells were resuspended in FACS buffer. B3807, 25F7 and isotype control were 3-fold serially diluted in FACS buffer with a dose ranging from 20 nM to 9 pM. The serially diluted antibodies were added to the cell suspension and incubated for 30 minutes on ice. Then after removal of unbound antibodies, cells were stained with anti-human IgG conjugated with Alexa Fluor 633 (Thermo, A21091). Fluorescence measurement was acquired on FACSCelesta flow cytometer and analyzed in Flowjo to determine the mean fluorescence intensities (MFI). To test the antibodies' ability of binding to native human LAG3, PBMCs from health donor were stimulated with anti-CD3 (BD, 555336) and anti-CD28 (BD, 555725) both at a concentration of 1 μg/ml. Following 3 days' stimulation, cells were harvested and incubated with anti-LAG3 antibodies for 30 mins on ice. The cells were stained with anti-human CD4 and anti-human IgG. Analysis of antibodies binding to CD4+ cells were carried out on FACSCelesta flow cytometry.

[5] = target: T5, recombinant his-tag human LAG3-ECD protein (human, UniProt P18627 23-450); assay: Biacore T200, B3807 captured on protein A, His-tag human LAG3-ECD injected; column 'KD', unit inferred
T5 construct: extracellular domain; not shown: his tag
T5 sequence (looked up): T1 sequence (looked up)
Method: (§2) The binding of B3807 to recombinant His-tag human LAG3-ECD protein was examined by Biacore T200 using a capture method. B3807 was captured using protein A which was immobilized on CM5 sensor chip. Serial concentrations of his-tag human LAG3-ECD protein (0-12 nM) were injected over capture antibodies at the flow rate of 30 μl/min. The dissociation phase was 900 s or 550 s.

[6] = target: T4, human LAG3 on cells; assay: flow cytometry (MFI) on human LAG3-expressing Jurkat cells, upper panel
Method: as §1

[7] = target: T6, biotin-labeled LAG3-ECD (Homo sapiens (Human), UniProt P18627 23-450, biotin label, site not stated); assay: ELISA on coated recombinant FGL-1; blocking of the binding of biotin-labeled LAG3-ECD to FGL-1
T6 construct: also called soluble LAG-3; LAG3 protein
T6 sequence: T1 sequence (looked up)
Method: Recombinant FGL-1 were coated on a 96 well plated at a concentration of 1 μg/ml and incubated overnight at 4° C. Serially diluted anti-LAG3 antibody B3807 (starting from 10 μg/ml and 1:3 dilution) and biotin-labeled LAG3-ECD (2 μg/ml) were incubated with FGL-1 coated wells at room temperature for 2 hours. After extensive washing with the wash buffer, streptavidin-HRP was added.

[8] = target: T5, recombinant his-tag human LAG3-ECD …; assay: Biacore, antibody captured, His-tag human LAG3-ECD injected (procedure of Example 2.16(B)); column ka (1/Ms)
Method: as §2
(§3) B3807 was used in the following examples for further testing and preparing bispecific antibodies.

[9] = target: T5, recombinant his-tag human LAG3-ECD …; assay: Biacore, antibody captured, His-tag human LAG3-ECD injected (procedure of Example 2.16(B))
Method: as §2, §3

[10] = target: T7, Bio-LAG3 (human, UniProt P18627 23-450, limits assumed, biotinylated (sites not given)); assay: ELISA, Bio-LAG3 held on streptavidin-coated plate
T7 construct: also called human LAG3 protein
T7 sequence (looked up): T1 sequence (looked up)
Method: The streptavidin was coated to an ELISA plate at 2 μg/ml with 100 μl/well. 100 μl of Bio-LAG3 at 1.0 μg/ml was subsequently incubated with streptavidin at RT for 1 hr. B3807, along with a positive control 25F7 and a negative control IgG, were serially diluted with ELISA diluent buffer. To assess binding, the antibodies at various concentrations were added to LAG3 protein-coated plate for 1.5 hr RT. The resulting plates were washed and then labeled with anti-human IgG(Fab)-HRP antibody.

[11] = target: T5, recombinant his-tag human LAG3-ECD …; assay: Biacore, antibody captured, His-tag human LAG3-ECD injected (procedure of Example 2.16(B)); column kd(1/s)
Method: as §2, §3

[12] = target: T2, human PD-L1-Fc protein; assay: ELISA receptor blocking, coated PD-L1-Fc, competitor biotin PD-1-Fc
Method: To evaluate the blocking effect of HL1210-3 mouse mAb on recombinant human PD-L1 to bind to its receptor PD-1, the ELISA based receptor blocking assay was employed. Briefly, microtiter plates were coated with human PD-L1-Fc protein at 1 μg/ml in PBS, 100 μl/well at 4° C. overnight, then blocked with 100 μl/well of 5% BSA. 50 μl biotin-labeled human PD-1-Fc protein and 3-fold dilutions of HL1210-3 antibodies starting from 2 μg/ml at 50 μl were added to each well and incubated for 1 hour at 37° C. The plates were washed with PBS/Tween and then incubated with Streptavidin-HRP for 1 hour at 37° C. After washing, the plates were developed with TMB substrate and analyzed by spectrophotometer at OD 450-630 nm.

[13] = target: T8, human PD-L1 expressed on mammalian cells (human, UniProt Q9NZQ7 19-290); assay: FACS receptor blocking on PDL1-CHOK1 cells, competitor biotin huPD-1
T8 construct: whole, on cells; also called PDL1-CHOK1 cells; PDL1-Raji cells
Method: (§4) To evaluate the blocking effect of HL1210-3 mouse mAb on human PD-L1 expressed on mammalian cells to bind to its receptor PD-1, the FACS-based receptor blocking assay was used. Briefly, PDL1-CHOK1 cells were firstly incubated with 3-fold serious diluted HL1210-3 mouse mAb starting at 20 μg/ml at RT for 1 hour. After wash by FACS buffer (PBS with 2% FBS), the biotin-labeled huPD-1 was added to each well and incubated at RT for 1 hour. Then, the Streptavidin-PE was added to each well for 0.5 hour post twice wash with FACS buffer. The mean florescence intensity (MFI) of PE was evaluated by FACSAriaIII.

[14] = target: T9, human PD-L1-his taq protein (human, UniProt Q9NZQ7 19-239, limits assumed); assay: SPR Biacore T200, antibody captured by anti-mouse Fc, PD-L1-his injected
T9 construct: also called recombinant PD-L1 protein; recombinant human PD-L1; not shown: his tag
Method: The binding of the HL1210-3 antibodies to recombinant PD-L1 protein (human PD-L1-his taq) was tested with BIACORE™ using a capture method. The HL1210-3 mouse mAb was captured using anti-mouse Fc antibody coated on a CM5 chip. A series dilution of human PD-L1-his taq protein was injected over captured antibody for 3 mins at a flow rate of […]. The antigen was allowed to dissociate for 900 s. All the experiment were carded out on a Biacore T200. Data analysis was carried out using Biacore T200 evaluation software.

[15] = target: T8, human PD-L1 expressed on mammalian cells; assay: FACS-based receptor blocking on PDL1-CHOK1 cells; blocked ligand biotin-labeled huPD-1; unit from the x axis Log [Con. M]; the text prints the rounded 2.56 nM
Method: as §4

T2 sequence (Q9NZQ7 19-239 limits assumed): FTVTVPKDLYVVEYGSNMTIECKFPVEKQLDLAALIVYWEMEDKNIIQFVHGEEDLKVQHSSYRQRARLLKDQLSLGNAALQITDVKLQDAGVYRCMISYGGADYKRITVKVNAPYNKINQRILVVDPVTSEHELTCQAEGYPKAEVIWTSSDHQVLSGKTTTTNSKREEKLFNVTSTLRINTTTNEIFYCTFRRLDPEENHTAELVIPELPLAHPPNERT
T9 sequence (Q9NZQ7 19-239 limits assumed): as above
T8 sequence (Q9NZQ7 19-290): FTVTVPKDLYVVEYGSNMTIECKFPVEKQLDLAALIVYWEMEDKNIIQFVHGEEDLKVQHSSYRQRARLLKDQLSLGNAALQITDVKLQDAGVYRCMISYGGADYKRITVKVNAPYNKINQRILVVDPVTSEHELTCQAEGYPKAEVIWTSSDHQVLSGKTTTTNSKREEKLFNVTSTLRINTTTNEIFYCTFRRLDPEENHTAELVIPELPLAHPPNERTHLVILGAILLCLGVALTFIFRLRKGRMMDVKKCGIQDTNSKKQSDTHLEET

- binding result [1]: binds
- binding result [2]: binds
B1: H12x147 (bispecific antibody, human IgG1, kappa, N297A)
heavy: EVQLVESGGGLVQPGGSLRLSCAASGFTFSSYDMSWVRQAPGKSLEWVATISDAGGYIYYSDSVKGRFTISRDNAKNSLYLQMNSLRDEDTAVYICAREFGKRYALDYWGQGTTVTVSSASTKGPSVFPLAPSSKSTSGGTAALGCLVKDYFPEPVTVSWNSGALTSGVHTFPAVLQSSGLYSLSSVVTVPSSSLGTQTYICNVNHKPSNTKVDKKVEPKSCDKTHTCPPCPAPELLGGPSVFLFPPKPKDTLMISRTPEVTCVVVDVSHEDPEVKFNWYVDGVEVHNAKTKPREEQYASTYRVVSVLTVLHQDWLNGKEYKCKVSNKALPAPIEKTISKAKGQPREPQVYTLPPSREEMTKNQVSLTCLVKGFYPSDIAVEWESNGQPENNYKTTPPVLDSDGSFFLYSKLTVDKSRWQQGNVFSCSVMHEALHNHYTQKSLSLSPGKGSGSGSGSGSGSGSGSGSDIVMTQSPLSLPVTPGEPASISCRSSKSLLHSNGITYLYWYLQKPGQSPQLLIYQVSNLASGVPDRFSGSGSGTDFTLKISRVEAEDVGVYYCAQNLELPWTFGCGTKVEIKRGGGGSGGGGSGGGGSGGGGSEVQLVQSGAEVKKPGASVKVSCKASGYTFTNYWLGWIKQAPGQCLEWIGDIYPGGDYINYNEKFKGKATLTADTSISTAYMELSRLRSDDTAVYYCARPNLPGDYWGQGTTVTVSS
light: DIQMTQSPSSLSASVGDRVTITCKASQDVTPAVAWYQQKPGKAPKLLIYSTSSRYTGVPSRFSGSGSGTDFTFTISSLQPEDIATYYCQQHYTTPLTFGQGTKLEIKRTVAAPSVFIFPPSDEQLKSGTASVVCLLNNFYPREAKVQWKVDNALQSGNSQESVTEQDSKDSTYSLSSTLTLSKADYEKHKVYACEVTHQGLSSPVTKSFNRGEC
notes: also called L1A3

- IC50 [3]: 0.41 nM
- EC50 [4]: 0.32 nM
- Kd [5]: 0.464 nM
- EC50 [6]: 0.06 nM
- IC50 (read off the curve) [7]: ~0.2 µg/mL
- kon [8]: 5.66e+06 M⁻¹ s⁻¹
- Kd [9]: 0.915 nM
- EC50 [10]: 0.06 nM
- koff [11]: 0.00517 s⁻¹
B2: 147H 3807 (antibody, V domains shown)
VH: EVQLVQSGAEVKKPGASVKVSCKASGYTFTNYWLGWIKQAPGQGLEWIGDIYPGGDYIVYNEKFKGKATLTADTSISTAYMELSRLRSDDTAVYYCARPNLPKDHWGQGTTVTVSS
VL: DIVMTQSPLSLPVTPGEPASISCRSSKSLLHSQGITYLYWYLQKPGQSPQLLIYQVSNLASGVPDRFSGSGSGTDFTLKISRVEAEDVGVYYCAQYLELPWTFGGGTKVEIK
notes: also called B3807

- IC50 [12]: 0.783 nM
- IC50 [13]: 2.56 nM
- EC50 [2]: 0.00554 µg/mL
- Kd [14]: 0.293 nM
- koff [14]: 4.69e-05 s⁻¹
- kon [14]: 161000 M⁻¹ s⁻¹
- IC50 [15]: 2.56 nM
B3: HL1210-3 mouse mAb (antibody, V domains shown)
VH: EVKLVESGGDLVKPGGSLKLSCAASGFTFSSYDMSWVRQTPEKSLEWVATISDGGGYIYYSDSVKGRFTISRDNAKNNLYLQMSSLRSEDTALYICAREFGKRYALDYWGQGTSVT
VL: DIVMTQSHKFMSTSVGDRVSISCKASQDVTPAVAWYQQKPGQSPKLLIYSTSSRYTGVPDRFTGSGSGTDFTFTISSVQAEDLAVYYCQQHYTTPLTFGAGTKLELK
notes: Mouse monoclonal antibody purified from hybridoma; also called hybridoma clone HL1210-3
